Assay results reported in article PMC2693456.

How the values were obtained:
[1] = target: BiP (Grp78, hsp70 isoform 5) (UniProt P06761); assay: biotin-peptide streptavidin pull-down, LC-MS/MS; conditions: reference: nonphospho-peptide
[2] = target: heat shock cognate 70 (hsc70; hsp70 isoform 8) (UniProt P63018); assay: biotin-peptide streptavidin pull-down, LC-MS/MS; conditions: reference: nonphospho-peptide
annexin II = annexin II (UniProt Q07936); assay: biotin-peptide streptavidin pull-down, LC-MS/MS; conditions: reference: nonphospho-peptide
[3] = target: Heat Shock Protein 70 Isoform 2 (hsp70-2) (UniProt P14659); assay: biotin-peptide streptavidin pull-down, LC-MS/MS; conditions: reference: nonphospho-peptide
[4] = target: BiP (Grp78, hsp70 isoform 5) (UniProt P06761); assay: biotin-peptide streptavidin pull-down, immunoblot; conditions: reference: nonphospho-peptide; sites S256
[5] = target: Heat Shock Protein 70 Isoform 1 (hsp70-1); assay: biotin-peptide streptavidin pull-down, LC-MS/MS; conditions: reference: nonphospho-peptide; sites S261

Substance	other: label-free MS quantification vs no-peptide control (Table 2) ([1]; sites S256)	other: label-free MS quantification vs no-peptide control (Table 2) ([2]; sites S256)	other: label-free MS quantification vs no-peptide control (Table 2) (annexin II; sites S256)	other: label-free MS quantification vs no-peptide control (Table 2) ([3]; sites S256)	binding against the reference [4]	other: label-free MS quantification vs no-peptide control (Table 2) ([1]; sites S261)	other: label-free MS quantification vs no-peptide control (Table 2) ([2]; sites S261)	other: label-free MS quantification vs no-peptide control (Table 2) [5]	other: label-free MS quantification vs no-peptide control (Table 2) (annexin II; sites S261)	other: label-free MS quantification vs no-peptide control (Table 2) ([3]; sites S261)
aquaporin-2 (AQP2) COOH-terminal peptide COOH-terminal tail (from UniProt P34080) pS256 peptide	stronger; reference 2.13 ± 0.57	weaker; reference 5.70 ± 0.27	weaker; reference 3.19 ± 0.32	weaker; reference 4.17 ± 0.38	stronger					
aquaporin-2 (AQP2) COOH-terminal peptide COOH-terminal tail (from UniProt P34080) pS261 peptide						weaker; reference 2.13 ± 0.57	weaker; reference 5.70 ± 0.27	weaker; reference 3.41 ± 0.44	weaker; reference 3.19 ± 0.32	weaker; reference 4.17 ± 0.38
